Columns and labels:
Conditions in all cases: both partners purified
GII.4.2002 P domain = GII.4.2002 P domain (Human norovirus GII.4 2002 Farmington …, UniProt R4I4P2, strain); assay: crystal structure
[1] = target: T1, GII.4 2012 Virus like particles (Human norovirus GII.4 Sydney 2012, …, UniProt K4LM89, strain); assay: ELISA; EIA: plates coated with VLP at 0.25 μg/ml in PBS for 4 h, blocked in 5% dry milk in PBS-0.05% Tween-20; two-fold serial dilutions of mAb at 37°C; anti-human IgG-HRP; less than 0.2 OD at 2 μg/ml scored as negative
T1 construct: copies: 180

[2] = target: GII.17 Virus like particles (Human norovirus GII.17, GenBank …, UniProt A0A0E3X5I8, strain); assay: as above
[3] = target: T2, GII.4 2002 Virus like particles (Human norovirus GII.4 2002 Farmington …, UniProt R4I4P2, strain); assay: as above
T2 construct: copies: 180

[4] = target: T3, GII.4 2006b Virus like particles (Human norovirus GII.4 2006b …, UniProt R4I3T2, strain); assay: as above
T3 construct: copies: 180

[5] = target: T4, GII.4 2015 Virus like particles (Human norovirus GII.P16-GII.4 Sydney …, strain); assay: as above
T4 construct: copies: 180
T4 chain: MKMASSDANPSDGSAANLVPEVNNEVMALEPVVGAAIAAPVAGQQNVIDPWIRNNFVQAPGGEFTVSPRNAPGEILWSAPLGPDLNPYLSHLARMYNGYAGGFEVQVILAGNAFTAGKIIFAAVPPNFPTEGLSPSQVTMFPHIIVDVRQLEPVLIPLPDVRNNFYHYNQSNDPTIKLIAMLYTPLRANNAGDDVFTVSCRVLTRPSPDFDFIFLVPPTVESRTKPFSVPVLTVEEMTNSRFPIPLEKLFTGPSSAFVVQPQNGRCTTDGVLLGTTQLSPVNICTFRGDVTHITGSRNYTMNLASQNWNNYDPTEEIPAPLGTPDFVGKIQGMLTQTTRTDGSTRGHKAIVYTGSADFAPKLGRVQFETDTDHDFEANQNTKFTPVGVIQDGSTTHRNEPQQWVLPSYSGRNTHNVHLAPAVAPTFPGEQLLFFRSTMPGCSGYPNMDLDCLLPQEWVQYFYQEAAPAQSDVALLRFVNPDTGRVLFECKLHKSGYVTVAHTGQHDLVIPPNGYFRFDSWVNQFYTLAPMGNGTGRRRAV

[6] = target: T5, GII.4 1997 Virus like particles (Human norovirus GII.4 1997 (US95_96), …, UniProt R4I4R2, strain); assay: as above
T5 construct: copies: 180

[7] = target: GII.2 Virus like particles (Human norovirus GII.2 (Snow Mountain …, UniProt Q80RD6, strain)); assay: as above
[8] = target: soluble GII.4 P domain from the 2009 pandemic strain (Human norovirus GII.4 2009 New Orleans, …, UniProt D3YBZ4, strain); assay: co-purification of the complex; Fab of A1227 purified in complex with soluble GII.4 P domains, screened for crystallization
[9] = target: soluble GII.4 P domain from the 2006 pandemic strain (Human norovirus GII.4 2006, taken as …, UniProt R4I3T2, strain); assay: as above
[10] = target: soluble GII.4 P domain from the 2012 pandemic strain (Human norovirus GII.4 Sydney 2012, …, UniProt K4LM89, strain); assay: as above

Measured: binding result

B1: A1431 Fab (Fab, V domains shown)
VH: QVQLVQSGGGLVQPGGSLRLSCAASGFAFSNHGMHWVRQAPGKGLEWLSYISGSTGAIHYANSVKGRFTISRDNARNSLDLQMNSLGDEDTAVYYCARDGPRPDGTGYAGPSNDYWGQGTLVSVSS
VL: EIVLTQSPASLSLSPGERATLSCKASRSISIYLAWYQQKPGQAPRLLIYDASYRAIGIPARFSGSGSGTDFTLTISNLEPEDFAVYYCQHRSSWPALTFGGGTKVEIK
binds: GII.4.2002 P domain

B2: A1227 (recombinant IgG1) (antibody, V domains shown)
VH: QVQLVQSGGGMVQPGGSLSLSCAASGFTLSNYAMTWVRQAPGKGLEWVSSIGGSGGTTYYADSVKGRFTISRDSSMNTLYLQMSNLRAGDTAVYYCAKDKTRTLRLGYSGMDVWGQGTTVTVSS
VL: DIRLTQSPSSLSASVGDRVTITCRASQSISSYLNWYQQKPGKAPDLLIYGASSLQSGVPSRFSGSGSGTDFTLTISSLQPEDFGNYYCQQSFSTPRTFGQGTKVELK
binds: [1] | [2] | [3] | [4] | [5] | [6] | [7]

B3: A1227 Fab (Fab, V domains shown)
VH: QVQLVQSGGGMVQPGGSLSLSCAASGFTLSNYAMTWVRQAPGKGLEWVSSIGGSGGTTYYADSVKGRFTISRDSSMNTLYLQMSNLRAGDTAVYYCAKDKTRTLRLGYSGMDVWGQGTTVTVSS
VL: DIRLTQSPSSLSASVGDRVTITCRASQSISSYLNWYQQKPGKAPDLLIYGASSLQSGVPSRFSGSGSGTDFTLTISSLQPEDFGNYYCQQSFSTPRTFGQGTKVELK
notes: also called Fab A1227
binds: [8] | [9] | [10]

Reference: PMC6591005 (Immunity, 2019)
